Results on two molecules are retold here after article PMC9897468 (Proceedings of the National Academy of Sciences of the …, 2022).

B1: full-length mouse KIF5AA homodimer (kinesin-1), unlabeled (natural protein, UniProt P33175 1-1027, looked up)
chain: MAETNNECSIKVLCRFRPLNQAEILRGDKFIPIFQGDDSVIIGGKPYVFDRVFPPNTTQEQVYHACAMQIVKDVLAGYNGTIFAYGQTSSGKTHTMEGKLHDPQLMGIIPRIARDIFNHIYSMDENLEFHIKVSYFEIYLDKIRDLLDVTKTNLSVHEDKNRVPFVKGCTERFVSSPEEILDVIDEGKSNRHVAVTNMNEHSSRSHSIFLINIKQENVETEQKLSGKLYLVDLAGSEKVSKTGAEGAVLDEAKNINKSLSALGNVISALAEGTKSYVPYRDSKMTRILQDSLGGNCRTTMFICCSPSSYNDAETKSTLMFGQRAKTIKNTASVNLELTAEQWKKKYEKEKEKTKAQKETIAKLEAELSRWRNGENVPETERLAGEDSALGAELCEETPVNDNSSIVVRIAPEERQKYEEEIRRLYKQLDDKDDEINQQSQLIEKLKQQMLDQEELLVSTRGDNEKVQRELSHLQSENDAAKDEVKEVLQALEELAVNYDQKSQEVEEKSQQNQLLVDELSQKVATMLSLESELQRLQEVSGHQRKRIAEVLNGLMRDLSEFSVIVGNGEIKLPVEISGAIEEEFTVARLYISKIKSEVKSVVKRCRQLENLQVECHRKMEVTGRELSSCQLLISQHEAKIRSLTEYMQTVELKKRHLEESYDSLSDELARLQAHETVHEVALKDKEPDTQDAEEVKKALELQMENHREAHHRQLARLRDEINEKQKTIDELKDLNQKLQLELEKLQADYERLKNEENEKSAKLQELTFLYERHEQSKQDLKGLEETVARELQTLHNLRKLFVQDVTTRVKKSAEMEPEDSGGIHSQKQKISFLENNLEQLTKVHKQLVRDNADLRCELPKLEKRLRATAERVKALEGALKEAKEGAMKDKRRYQQEVDRIKEAVRYKSSGKRGHSAQIAKPVRPGHYPASSPTNPYGTRSPECISYTNNLFQNYQNLHLQAAPSSTSDMYFASSGATSVAPLASYQKANMDNGNATDINDNRSDLPCGYEAEDQAKLFPLHQETAAS
B2: C-terminal APC fragment (APC-C), residues 2,163 to 2,845 (domain or fragment, UniProt Q61315 2163-2845, looked up)
chain: KGPRILKPGEKSTLEAKKIESENKGIKGGKKVYKSLITGKIRSNSEISSQMKQPLPTNMPSISRGRTMIHIPGLRNSSSSTSPVSKKGPPLKTPASKSPSEGPGATTSPRGTKPAGKSELSPITRQTSQISGSNKGSSRSGSRDSTPSRPTQQPLSRPMQSPGRNSISPGRNGISPPNKLSQLPRTSSPSTASTKSSGSGKMSYTSPGRQLSQQNLTKQASLSKNASSIPRSESASKGLNQMSNGNGSNKKVELSRMSSTKSSGSESDSSERPALVRQSTFIKEAPSPTLRRKLEESASFESLSPSSRPDSPTRSQAQTPVLSPSLPDMSLSTHPSVQAGGWRKLPPNLSPTIEYNDGRPTKRHDIARSHSESPSRLPINRAGTWKREHSKHSSSLPRVSTWRRTGSSSSILSASSESSEKAKSEDERHVSSMPAPRQMKENQVPTKGTWRKIKESDISPTGMASQSASSGAASGAESKPLIYQMAPPVSKTEDVWVRIEDCPINNPRSGRSPTGNTPPVIDSVSEKGSSSIKDSKDSKDTHGKQSVGSGSPVQTVGLETRLNSFVQVEAPEQKGTEAKPGQSNPVSIAETAETCIAERTPFSSSSSSKHSSPSGTVAARVTPFNYNPSPRKSSADSTSARPSQIPTPVSTNTKKRDSKTDITESSGAQSPKRHSGSYLVTSV
modifications: Alexa647 label (APC-C-647, in the TIRF-M experiments)

The target of one experiment is APC-mGFP (UniProt Q61315 1-2845). Nature of the experiment: TIRF-M in vitro motility reconstitution.
For experiment [1], the target named is B1. As to the kind of experiment: TIRF-M in vitro motility reconstitution.

As to B1, in the experiment with APC-mGFP, the binding result is recorded as “binds”. With B2, the binding result in experiment [1] was “binds”.
